Test results from PMC12661054 (2025).
Ends that are not written are not given here.

Legend:
[1] = target: GST-TOPBP1(BRCT0-2 1-290) K250E (human, UniProt Q92547 1-290, K250E); assay: FP
[2] = target: T1, GST-TOPBP1(BRCT0-2 1-290) WT (human, UniProt Q92547 1-290); assay: FP
T1 chain: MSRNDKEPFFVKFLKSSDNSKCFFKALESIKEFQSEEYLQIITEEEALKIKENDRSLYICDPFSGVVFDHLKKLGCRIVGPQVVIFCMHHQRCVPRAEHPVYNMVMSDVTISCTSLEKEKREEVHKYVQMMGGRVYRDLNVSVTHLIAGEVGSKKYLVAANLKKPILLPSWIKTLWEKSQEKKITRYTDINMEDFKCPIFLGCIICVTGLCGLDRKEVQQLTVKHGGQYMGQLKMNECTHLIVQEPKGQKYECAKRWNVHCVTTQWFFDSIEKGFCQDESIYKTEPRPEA

## fluorescein-GYGTSWLVPATPLASRSR (also: phosphothreonine at Thr1260, position in chain not mapped) [Flu-SLX4_pT1260]
[1]
  Kd: 3.55 µM
[2]
  Kd: 3.29 µM
